From the supplement of paper PMC11246515
± gives the standard deviation of the averaged measurements.

Assay: total protein half-life in vivo (active degradation + dilution); higher = more stable protein
[1] = E. coli NCM3722 delta-clpP delta-lon delta-hslV, growth: N-lim chemostat, doubling time 6 h
[2] = E. coli NCM3722 delta-clpP, growth: N-lim chemostat, doubling time 6 h
[3] = E. coli NCM3722 delta-hslV, growth: N-lim chemostat, doubling time 6 h
[4] = E. coli NCM3722 delta-lon, growth: N-lim chemostat, doubling time 6 h
[5] = E. coli NCM3722 delta-smpB, growth: N-lim chemostat, doubling time 6 h
[6] = wild type E. coli NCM3722, growth: C-lim chemostat, doubling time 3 h
[7] = wild type E. coli NCM3722, growth: C-lim chemostat, doubling time 6 h
[8] = wild type E. coli NCM3722, growth: C-lim chemostat, doubling time 12 h
[9] = wild type E. coli NCM3722, growth: N-lim chemostat, doubling time 6 h
[10] = wild type E. coli NCM3722, growth: N-lim chemostat, doubling time 12 h
[11] = wild type E. coli NCM3722, growth: P-lim chemostat, doubling time 6 h
[12] = wild type E. coli NCM3722, growth: P-lim chemostat, doubling time 12 h

Sequence	total protein half-life in vivo [1] [h]	total protein half-life in vivo [2] [h]	total protein half-life in vivo [3] [h]	total protein half-life in vivo [4] [h]	total protein half-life in vivo [5] [h]	total protein half-life in vivo [6] [h]	total protein half-life in vivo [7] [h]	total protein half-life in vivo [8] [h]	total protein half-life in vivo [9] [h]	total protein half-life in vivo [10] [h]	total protein half-life in vivo [11] [h]	total protein half-life in vivo [12] [h]
MNKYLKYFSGTLVGLMLSTSAFAAAEYAVVLKTLSNPFWVDMKKGIEDEAKTLGVSVDIFASPSEGDFQSQLQLFEDLSNKNYKGIAFAPLSSVNLVMPVARAWKKGIYLVNLDEKIDMDNLKKAGGNVEAFVTTDNVAVGAKGASFIIDKLGAEGGEVAIIEGKAGNASGEARRNGATEAFKKASQIKLVASQPADWDRIKALDVATNVLQRNPNIKAIYCANDTMAMGVAQAVANAGKTGKVLVVGTDGIPEARKMVEAGQMTATVAQNPADIGATGLKLMVDAEKSGKVIPLDKAPEFKLVDSILVTQ	4 ± 0.15	5.04 ± 0.31	5.783 ± 0.043	6.64 ± 0.52	5.82 ± 0.24	3.15 ± 0.034	6.52 ± 2	9.15 ± 0.44	5.9 ± 0.064	12.3 ± 0.66	5.91 ± 0.37	11.3 ± 0.52
MNKYTINDITRASGGFAMLAVDQREAMRMMFAAAGAPAPVADSVLTDFKVNAAKALSPYASAILVDQQFCYRQVVEQNAIAKSCAMIVAADEFIPGNGIPVDSVVIDRKINPLQIKQDGGKALKLLVLWRSDEDAQQRLDMVKEFNELCHSHGLVSIIEPVVRPPRRGDKFDREQAIIDAAKELGDSGADLYKVEMPLYGKGPQQELLCASQRLNDHINMPWVILSSGVDEKLFPRAVRVAMTAGASGFLAGRAVWASVVGLPDNELMLRDVCAPKLQQLGDIVDEMMAKRR	5.2 ± 0.61	4.38 ± 0.96	4.42 ± 0.41	5.52 ± 0.98	4.09 ± 0.52	2.93 ± 0.18	6.51 ± 1.8	8.63 ± 1.5	4.19 ± 0.58	6.3 ± 0.93	5.05 ± 0.15	10.2 ± 0.62
MNLDDIINSMMPEVYQRLSTAVELGKWPDGVALTEEQKENCLQLVMLWQARHNIEAQHMTIDTNGQMVMKSKQQLKEDFGISAKPIAMFK	4.42 ± 2.1	0.712	–	–	–	0.231 ± 0.0036	0.237 ± 0.16	0.116 ± 0.16	0.172	–	0.371 ± 0.17	1.17 ± 1.3
MNLMTTITGVVLAGGKARRMGGVDKGLLELNGKPLWQHVADALMTQLSHVVVNANRHQEIYQASGLKVIEDSLADYPGPLAGMLSVMQQEAGEWFLFCPCDTPYIPPDLAARLNHQRKDAPVVWVHDGERDHPTIALVNRAIEPLLLEYLQAGERRVMVFMRLAGGHAVDFSDHKDAFVNVNTPEELARWQEKR	4.29 ± 0.5	3.95 ± 0.19	3.728 ± 0.033	4.1 ± 0.19	3.59 ± 0.12	2.95 ± 0.26	5.9 ± 0.46	9.71 ± 3.2	4.46	6.67 ± 1.5	5.046 ± 0.009	10.9 ± 0.43
MNLNSIPAFDDNYIWVLNDEAGRCLIVDPGDAEPVLNAIAANNWQPEAIFLTHHHHDHVGGVKELVEKFPQIVVYGPQETQDKGTTQVVKDGETAFVLGHEFSVIATPGHTLGHICYFSKPYLFCGDTLFSGGCGRLFEGTASQMYQSLKKLSALPDDTLVCCAHEYTLSNMKFALSILPHDLSINDYYRKVKELRAKNQITLPVILKNERQINVFLRTEDIDLINVINEETLLQQPEERFAWLRSKKDRF [P0AC84]	4.67 ± 0.3	4.24 ± 0.2	4.88 ± 0.89	4.5351 ± 0.0033	4.01 ± 0.41	2.81 ± 0.13	4.76 ± 0.13	7.09 ± 1.1	4.31 ± 0.21	6.316 ± 0.03	4.81 ± 0.13	8.75 ± 0.89
MNMEEIVALSVKHNVSDLHLCSAWPARWRIRGRMEAAPFDTPDVEELLREWLDDDQRAILLENGQLDFAVSLAENQRLRGSAFAQRHGISLALRLLPSHCPQLEQLGAPTVLPELLKSENGLILVTGATGSGKSTTLAAMVGYLNQHADAHILTLEDPVEYLYASQRCLIQQREIGLHCMTFASGLRAALREDPDVILLGELRDSETIRLALTAAETGHLVLATLHTRGAAQAVERLVDSFPAQEKDPVRNQLAGSLRAVLSQKLEVDKQEGRVALFELLINTPAVGNLIREGKTHQLPHVIQTGQQVGMITFQQSYQHRVGEGRL	5.68 ± 0.4	–	–	–	–	–	–	–	–	–	–	–
MNMFFRLTALAGLLAIAGQTFAVEDITRADQIPVLKEETQHATVSERVTSRFTRSHYRQFDLDQAFSAKIFDRYLNLLDYSHNVLLASDVEQFAKKKTELGDELRSGKLDVFYDLYNLAQKRRFERYQYALSVLEKPMDFTGNDTYNLDRSKAPWPKNEAELNALWDSKVKFDELSLKLTGKTDKEIRETLTRRYKFAIRRLAQTNSEDVFSLAMTAFAREIDPHTNYLSPRNTEQFNTEMSLSLEGIGAVLQMDDDYTVINSMVAGGPAAKSKAISVGDKIVGVGQTGKPMVDVIGWRLDDVVALIKGPKGSKVRLEILPAGKGTKTRTVTLTRERIRLEDRAVKMSVKTVGKEKVGVLDIPGFYVGLTDDVKVQLQKLEKQNVSSVIIDLRSNGGGALTEAVSLSGLFIPAGPIVQVRDNNGKVREDSDTDGQVFYKGPLVVLVDRFSASASEIFAAAMQDYGRALVVGEPTFGKGTVQQYRSLNRIYDQMLRPEWPALGSVQYTIQKFYRVNGGSTQRKGVTPDIIMPTGNEETETGEKFEDNALPWDSIDAATYVKSGDLTAFEPELLKEHNARIAKDPEFQNIMKDIARFNAMKDKRNIVSLNYAVREKENNEDDATRLARLNERFKREGKPELKKLDDLPKDYQEPDPYLDETVNIALDLAKLEKARPAEQPAPVK	6.08 ± 0.32	6.08 ± 0.59	6.0465 ± 0.0037	6.36 ± 0.18	5.95 ± 0.39	2.99 ± 0.082	5.66 ± 0.27	10.9 ± 1.1	6.13 ± 0.35	12.8 ± 0.28	5.879 ± 0.052	12.9 ± 1.3
